Patent US20260226500A1
Several values for one entry are separate records, joined by “and”; a condition that tells them apart may be missing. Equal values may be shown once.

Legend:
[1] = target: OT-1 TCR (OVA-restricted T cell receptor) (mouse)
[2] = target: P14 TCR (gp33-specific T cell receptor) (mouse)
P14 TCR (gp33-specific T cell receptor) (mouse), sequence (chain, as listed by the source limits assumed): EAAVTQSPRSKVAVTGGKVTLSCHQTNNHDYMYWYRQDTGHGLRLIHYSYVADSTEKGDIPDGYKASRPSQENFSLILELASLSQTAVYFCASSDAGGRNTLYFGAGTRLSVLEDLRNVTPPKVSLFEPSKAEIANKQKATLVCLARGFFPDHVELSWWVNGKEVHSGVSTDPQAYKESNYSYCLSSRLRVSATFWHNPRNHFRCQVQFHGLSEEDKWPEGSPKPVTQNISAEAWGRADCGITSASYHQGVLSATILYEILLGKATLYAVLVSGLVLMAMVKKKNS

OT-1 TCR (OVA-restricted T cell receptor) (mouse), sequence (chain, as listed by the source limits assumed, chain 1 of 2): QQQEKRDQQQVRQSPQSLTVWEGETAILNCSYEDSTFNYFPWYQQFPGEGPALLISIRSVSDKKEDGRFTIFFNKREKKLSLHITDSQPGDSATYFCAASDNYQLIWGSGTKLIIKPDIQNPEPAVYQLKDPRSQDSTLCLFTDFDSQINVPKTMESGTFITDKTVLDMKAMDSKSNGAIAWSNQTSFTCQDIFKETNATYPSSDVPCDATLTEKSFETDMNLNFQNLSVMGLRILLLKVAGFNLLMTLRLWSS
OT-1 TCR (OVA-restricted T cell receptor) (mouse), sequence (chain, as listed by the source limits assumed, chain 2 of 2): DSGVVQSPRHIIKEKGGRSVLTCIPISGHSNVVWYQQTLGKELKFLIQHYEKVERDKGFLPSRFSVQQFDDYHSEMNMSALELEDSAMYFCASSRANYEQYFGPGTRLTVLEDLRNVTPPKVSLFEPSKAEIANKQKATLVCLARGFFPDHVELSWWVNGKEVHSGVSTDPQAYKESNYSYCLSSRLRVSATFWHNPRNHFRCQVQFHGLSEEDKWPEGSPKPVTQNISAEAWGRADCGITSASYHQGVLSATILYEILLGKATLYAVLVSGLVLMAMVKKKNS

Substance: OVA Pentamer (peptide-MHC)
- percent OVA Pentamer+ GFP+ cells (Q2) (% (unit not given)) [1]: 6.66
- percent OVA Pentamer+ GFP- cells (Q3, upper left quadrant) (% (unit not given)) [1]: 26

Substance: P14 TCR (y-axis stain) (antibody)
- percent P14 TCR+ GFP- cells (Q1) (% (unit not given)) [2]: 89.5 and 96.7 and 36.5
